Results on one molecule are retold here after patent US6495376B1, “Methods and compositions for regulating protein-protein interactions” (Beth Israel Deaconess Medical Center, priority 1999, dated 2002).

The subject of data set [1] is WFYpSPFLE (Pintide). As to the kind of experiment: Fluorescence anisotropy (polarization) binding to fluorescein-labeled phosphorylated Pintide analogue. The source says:
To determine the affinity of Pin1, and its WW or PPIase domain for phosphopeptides, peptides were labeled with fluorescein and their interactions with Pin1 measured using quantitative fluorescence anisotrophy. To prevent nonspecific labeling, a Pintide analogue (WFYpSPFLE) SEQ ID NO: 9 was used, which binds Pin1 with a high affinity based on the peptide library screen as described by (Lu, K. P. et al., U.S. Ser. No. 60/058,164 (1997), the teachings of which are incorporated herein in their entirety.
Pintide and its nonphosphorylated counterpart were synthesized and incubated with GST-Pin1 or the GST-WW-domain of Pin1 in a binding buffer, using established procedures (Shen, M. et al., Genes & Dev 12:706 (1998)). After a 1 hr incubation, mitotic HeLa cell extracts were added and subjected to GST pull down experiments, followed by immunoblotting analysis using the MPM-2 antibody. To obtain semi-quantitative data, films of immunoblots were scanned at the region of 55 kDa, the major Pin1-binding protein, and data analyzed using ImageQuan (ScanJet II CX). The peptide binding constants were measured using a fluorescence polarization assay (Jiskoot, W. et al., Anal Biochem 196:421 (1991)). Peptides were fluorescein labeled at the N-terminus using the Fluorescein Amine Labeling Kit (Pan Vera Corp.) and purified by TLC according to the manufacturer's […]. To prevent nonspecific labeling, a Pintide analogue (WFYpSPFLE) SEQ ID NO: 8 and the nonphosphorylated control were used. Various concentrations of Pin1 and its mutant proteins were incubated with 0.1 μM of the labeled peptides in a binding buffer containing 50 mM HEPES, pH 7.4, 100 mM NaCl, 2% glycerol. Fluorescence polarization values were obtained using a Pan Vera Beacon 2000 system, as described by the manufacturer.

Data set [2] relates to MPM-2 antigens (mitotic phosphoproteins) of mitotic HeLa cell extracts. In words: GST pulldown from mitotic HeLa cell extracts, MPM-2 immunoblotting (phosphoprotein-binding activity). On the procedure: GST-fusion proteins containing the WW-domain, PPIase-domain or the entire Pin 1 protein were prepared and incubated with interphase (G1/S arrested; Control) or dividing (M phase) HeLa cell extracts using well-known procedures (Lu, K. P., et al., Nature 380:544 (1996); (Shen, M., et al., Genes & Devl. 12:706 (1998)). Briefly, HeLa cells were arrested at the G1/S boundary or mitosis by incubation with thymidine and aphidicolin or nocodazole for 16 h, respectively. The cells were lysed and supernatants incubated with 10 μl of agarose beads containing GST-Pin1; GST-WW-domain of Pin1; GST-PPIase domain of Pin1; or control GST for 2 h at 4° C. […]
Pintide and its nonphosphorylated counterpart were synthesized and incubated with GST-Pin1 or the GST-WW-domain of Pin1 in a binding buffer, using established procedures (Shen, M. et al., Genes & Dev 12:706 (1998)). […] To obtain semi-quantitative data, films of immunoblots were scanned at the region of 55 kDa, the major Pin1-binding protein, and data analyzed using ImageQuan (ScanJet II CX). The peptide binding constants were measured using a fluorescence polarization assay (Jiskoot, W. et al., Anal Biochem 196:421 (1991)). […] Fluorescence polarization values were obtained using a Pan Vera Beacon 2000 system, as described by the manufacturer. […]
(In western blotting, separated proteins are transferred to a membrane and probed.)

The subject of data set [3] is peptide substrate. In words: PPIase activity assay with peptide substrate. The class given is biochemical. The following applies: relative to wild-type protein defined as 100%.
Data set [4] concerns the target WFYSPFLE
As to the kind of experiment: Fluorescence anisotropy binding to fluorescein-labeled nonphosphorylated control peptide. As to conditions: nonphosphorylated peptide. On the technique in general: Polarisation of emitted light reports the rotation of a fluorescent probe.

Data set [5] has as its system phosphorylated tau. In words: GST-Pin1 pulldown of tau. The class given is binding. As to conditions: tau phosphorylated by Cdc2 in vitro. The source says:
Pin1 binds and regulates the function of a defined subset of mitotic phosphoproteins by interacting with conserved phosphorylated Ser/Thr-Pro motifs that are also recognized by MPM-2, a mitosis-specific, phosphorylation-dependent monoclonal antibody (mAb) (Yaffe, M. B. et al., Science 278:1957-1960 (1997); Shen, M. et al., Genes Dev. 12:706-720 (1 998)). Tau is an MPM-2 antigen phosphorylated on multiple Ser/Thr-Pro motifs during mitosis (Illenberger, S. et al., Mol Biol Cell 9:1495-1512 (1998)). Experiments were undertaken to determine whether Pin1 binds tau. Tau isoform was either synthesized by in vitro transcription and translation in the presence of ^35S-Met or produced in bacteria as an N-terminal His-tagged protein, followed by purification using NTA-Ni columns (Yaffe, M. B. et al., Science 278:1957-1960 (1997); Shen, M. et al., Genes Dev. 12:706-720 (1998)). To generate interphase- and mitosis-specific phosphorylated form of tau, tau was incubated with Xenopus interphase and mitotic extracts, respectively (Shen, M. et al., Genes Dev. 12:706-720 (1998)). […]
To determine whether Pin1 interacts with pT231-tau, GST-Pin1 beads were used to isolate tau from AD brain extracts or PHFs and T231 phosphorylation detected using CP9. […]

As a reminder, the Kd is the concentration at which binding is half-saturated.

phosphorylated tau, sequence (P10636 45-216 isoform P10636-2 limits assumed): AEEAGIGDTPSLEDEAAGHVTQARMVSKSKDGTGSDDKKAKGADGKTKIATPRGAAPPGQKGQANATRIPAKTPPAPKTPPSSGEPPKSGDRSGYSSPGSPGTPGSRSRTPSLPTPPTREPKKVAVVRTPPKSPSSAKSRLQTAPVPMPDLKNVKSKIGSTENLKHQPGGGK

B1: PPlase Domain: C-terminal PPIase domain (amino acids 47-163) of Pin1 (protein)
chain: NGQGEPARVRCSHLLVKHSQSRRPSSWRQEKITRTKEEALELINGYIQKIKSGEEDFESLASQFSDCSSAKARGDLGAFSRGQMQKPFEDASFALRTGEMSGPVFTDSGIHIILRTE
In the case of B1, the “fold lower affinity for the phosphopeptide than the WW-domain” value in data set [1] is on record as “about 10 fold”. In data set [1] (fluorescence anisotropy), the “binding to Pintide (in words)” value is reported as “No binding was detected”. Moreover, the Kd in data set [1] (low affinity binding site, read-out: WFYpSPFLE Kd(μM) Low affinity) stood at 15 µM. Also, the Phosphoprotein binding activity result in data set [2] (GST-fusion proteins with mitotic extracts, MPM2 antibody) was “−”. In data set [2] (mitotic HeLa cell extracts), the “binding to mitotic phosphoproteins / MPM-2 antigens (in words)” value was “no specific binding”. Also, the “PPlase Activity (%)” value in data set [3] was found to be 90%. Moreover, the “WFYSPFLE Kd” value is “Not binding” in data set [4] and “No binding was detected” in data set [4] (listed as PPIase domain). Further, in data set [5], the “binding to Cdc2 phosphorylated tau” value was “not”.
